Measured values reported in doi:10.1101/2022.04.21.489128.

Target: wild-type FliM (Vibrio alginolyticus flagellar rotor C-ring protein) with an N-terminal His-tag (V. alginolyticus)
Assay: SEC

wild-type FliM (Vibrio alginolyticus flagellar rotor C-ring protein) with an N-terminal His-tag (natural protein)
stoichiometry N: 2
